{"source": "patent US20060140932A1", "about": "(APPLIED MOLECULAR EVOLUTION, published 2006)", "binders": {"B1": {"name": "W17 (IgG1) (antibody)", "heavy": "not shown", "light": "DIQMTQSPSSLSASVGDRVTITCKFSQDIDRFLSWFQQKPGKAPKSLIYRVKRLVDGVPSRFSGSGSGTDFTLTISSLQPEDFATYYCVQYDEFPYGFGGGTKVEIKRTVAAPSVFIFPPSDEQLKSGTASVVCLLNNFYPREAKVQWKVDNALQSGNSQESVTEQDSKDSTYSLSSTLTLSKADYEKHKVYACEVTHQGLSSPVTKSFNRGEC", "notes": "humanized, IgG1 kappa"}, "B2": {"name": "W17 (IgG4) (antibody)", "heavy": "not shown", "light": "B1 light", "notes": "humanized, IgG4 kappa"}, "B3": {"name": "U43 (IgG1) (antibody, V domains shown)", "VH": "QVQLVQSGAEVKKPGSSVKVSCKASGYTFDRYWIEWVRQAPGQGLEWMGEILPGSGDINYNEKFKGRVTITADKSTSTAYMELSSLRSEDTAVYYCARMYYDYDQGFSLWGQGTLVTVSS", "VL": "DIQMTQSPSSLSASVGDRVTITCKASQDIDRFLSWFQQKPGKAPKSLIYRVKRLVDGVPSRFSGSGSGTDFTLTISSLQPEDFATYYCVQYDEFPYTFGGGTKVEIKR", "notes": "humanized, IgG1 kappa"}, "B4": {"name": "W13 (IgG1) (antibody, V domains shown)", "VH": "B3 VH with S108D, L109Y", "VL": "B3 VL with A25F, S34T, V89I", "notes": "humanized, IgG1 kappa"}, "B5": {"name": "W18 (IgG1) (antibody, V domains shown)", "VH": "B3 VH with D57T, S108D, L109N", "VL": "B3 VL with A25F", "notes": "humanized, IgG1 kappa"}, "B6": {"name": "W20 (IgG1) (antibody, V domains shown)", "VH": "B3 VH with S108D, L109Y", "VL": "B3 VL with A25F", "notes": "humanized, IgG1 kappa"}, "B7": {"name": "Mu007 (antibody, V domains shown)", "VH": "QVQLQQSGAELMKPGASVKISCKATGYTFSRYWIEWIKQRPGHGLEWIGEILPGNGNINYNEKFKGKATISADSSSETAYMQLSSLSSEDSAVYYCSTIYYDYDQGFTYWGQGTLVTVSA", "VL": "DIKMTQSPSSMYASLGERVTITCKASQDIDRYLSWFQQKPGKSPKTLIYRVKRLVDGVPSRFSGSASGQDYSLTISSLQYEDMGIYYCLQYDEFPYTFGGGTKLEIK"}}, "note": "Residue numbers refer to the chain shown, from its start.", "data": [{"biological_target": "T1, human IL-1β (human, UniProt P01584 117-269)", "assay": "cell-based or functional assay", "units": {"Fold Increase in Potency (against Mu007), T1165.17 cell proliferation assay": "fold", "IC50, T1165.17 cell proliferation assay (human IL-1β 0.3 pM)": "pM"}, "values": [{"binder": "B1", "Fold Increase in Potency (against Mu007), T1165.17 cell proliferation assay": 11, "IC50, T1165.17 cell proliferation assay (human IL-1β 0.3 pM)": 1.8}, {"binder": "B2", "Fold Increase in Potency (against Mu007), T1165.17 cell proliferation assay": 12, "IC50, T1165.17 cell proliferation assay (human IL-1β 0.3 pM)": 1.7}, {"binder": "B3", "Fold Increase in Potency (against Mu007), T1165.17 cell proliferation assay": 5, "IC50, T1165.17 cell proliferation assay (human IL-1β 0.3 pM)": 4}, {"binder": "B4", "Fold Increase in Potency (against Mu007), T1165.17 cell proliferation assay": 17, "IC50, T1165.17 cell proliferation assay (human IL-1β 0.3 pM)": 1.2}, {"binder": "B5", "Fold Increase in Potency (against Mu007), T1165.17 cell proliferation assay": 10, "IC50, T1165.17 cell proliferation assay (human IL-1β 0.3 pM)": 2}, {"binder": "B6", "Fold Increase in Potency (against Mu007), T1165.17 cell proliferation assay": 17, "IC50, T1165.17 cell proliferation assay (human IL-1β 0.3 pM)": 1.2}, {"binder": "B7", "Fold Increase in Potency (against Mu007), T1165.17 cell proliferation assay": 1, "IC50, T1165.17 cell proliferation assay (human IL-1β 0.3 pM)": 20.6}]}, {"biological_target": "T1, human IL-1β", "assay": "cell-based or functional assay", "remark": "another data set of the same source", "units": {"IL-6 Serum Levels in mice, human IL-1β 3 µg/kg + antibody 13 µg/kg": "pg/mL", "IL-6 Serum Levels in mice, human IL-1β 3 µg/kg + antibody 27 µg/kg": "pg/mL", "IL-6 Serum Levels in mice, human IL-1β 3 µg/kg + antibody 81 µg/kg": "pg/mL", "IL-6 Serum Levels in mice, human IL-1β 3 µg/kg + antibody 270 µg/kg": "pg/mL"}, "values": [{"binder": "B1", "IL-6 Serum Levels in mice, human IL-1β 3 µg/kg + antibody 13 µg/kg": 567, "IL-6 Serum Levels in mice, human IL-1β 3 µg/kg + antibody 27 µg/kg": 410, "IL-6 Serum Levels in mice, human IL-1β 3 µg/kg + antibody 81 µg/kg": 114, "IL-6 Serum Levels in mice, human IL-1β 3 µg/kg + antibody 270 µg/kg": 27.5}, {"binder": "B3", "IL-6 Serum Levels in mice, human IL-1β 3 µg/kg + antibody 13 µg/kg": 756, "IL-6 Serum Levels in mice, human IL-1β 3 µg/kg + antibody 27 µg/kg": 509, "IL-6 Serum Levels in mice, human IL-1β 3 µg/kg + antibody 81 µg/kg": 186, "IL-6 Serum Levels in mice, human IL-1β 3 µg/kg + antibody 270 µg/kg": 39.3}, {"binder": "B4", "IL-6 Serum Levels in mice, human IL-1β 3 µg/kg + antibody 13 µg/kg": 655, "IL-6 Serum Levels in mice, human IL-1β 3 µg/kg + antibody 27 µg/kg": 277, "IL-6 Serum Levels in mice, human IL-1β 3 µg/kg + antibody 81 µg/kg": 129, "IL-6 Serum Levels in mice, human IL-1β 3 µg/kg + antibody 270 µg/kg": 23.4}, {"binder": "B5", "IL-6 Serum Levels in mice, human IL-1β 3 µg/kg + antibody 13 µg/kg": 398, "IL-6 Serum Levels in mice, human IL-1β 3 µg/kg + antibody 27 µg/kg": 232, "IL-6 Serum Levels in mice, human IL-1β 3 µg/kg + antibody 81 µg/kg": 77.9, "IL-6 Serum Levels in mice, human IL-1β 3 µg/kg + antibody 270 µg/kg": 18}]}, {"biological_target": "T1, human IL-1β", "assay": "SPR (BIAcore), antibody captured on protein A, human IL-1β flowed; HBS-EP pH 7.4, 25 C", "protocol": "BIAcore™ is an automated biosensor system that measures molecular interactions. (Karlsson, et al. (1991) J. Immunol. Methods 145: 229-240). In these experiments antibody was captured to a surface at low density on a BIAcore™ chip. Ethyl-dimethylaminopropyl-carbodiimide (EDC) was used to couple reactive amino groups to protein A to a flow cell of a carboxy-methyl (CM5) BIAcore sensor chip. Protein A was diluted in sodium acetate buffer, pH 4.5, and immobilized on a flow cell of a CM5 chip using EDC to yield 1000 response units. Unreacted sites were blocked with ehanolamine. A flow rate of 60 μl/min was used. […] Elution was performed with glycine-HCl, pH 1.5. BIAevaluation™ was used to analyze the kinetic data.", "units": {"Kd": "pM", "koff": "s⁻¹", "kon": "M⁻¹ s⁻¹"}, "values": [{"binder": "B1", "Kd": 2.8, "koff": "9e-05", "kon": "3.1e+07"}, {"binder": "B2", "Kd": 3.3, "koff": 0.0001, "kon": "3.2e+07"}, {"binder": "B3", "Kd": 4.7, "koff": 0.00022, "kon": "4.7e+07"}, {"binder": "B4", "Kd": 2.8, "koff": 0.00017, "kon": "6.1e+07"}, {"binder": "B5", "Kd": 4.2, "koff": 0.00018, "kon": "4.1e+07"}, {"binder": "B6", "Kd": 2.7, "koff": 0.0001, "kon": "3.8e+07"}]}, {"biological_target": "T1, human IL-1β", "assay": "SPR (BIAcore), captured antibody, human IL-1β flowed; protocol for Mu007 as in PCT/US02/21281; HBS-EP pH 7.4, 25 C", "units": {"Kd": "pM", "koff": "s⁻¹", "kon": "M⁻¹ s⁻¹"}, "values": [{"binder": "B7", "Kd": 6.2, "koff": 0.00016, "kon": "2.6e+07"}]}]}
